Tests used:
[1] = molecular target: Myc-GST融合蛋白 (Myc tag fused to glutathione [S-transferase]); assay: indirect ELISA on coated Myc-GST (5 μg/mL), HRP anti-His secondary, 30 min at 80℃
[2] = molecular target: Myc-GST融合蛋白 (Myc tag fused to glutathione [S-transferase]); assay: indirect ELISA on coated Myc-GST (5 μg/mL), HRP anti-His secondary, 30 min at 90℃
[3] = molecular target: Myc-GST融合蛋白 (Myc tag fused to glutathione [S-transferase]); assay: indirect ELISA on coated Myc-GST (5 μg/mL), HRP anti-His secondary, 30 min at 70℃

- OD450 [1]: 1.4 OD450
- OD450 [2]: 1.1 OD450
- OD450 [3]: 1.5 OD450
B1: 针对c-Myc标签的单域重链抗体 (single-domain heavy-chain antibody against the c-Myc tag, SEQ ID NO.:1) (VHH, not shown: small tags and cut ends)
VHH: QLQLVESGGGLVQPGGSLRLSCSASGFAFNLFYMGWVRQAPGKGLEWVADIDNTGDKYYAESVEGRFTVSRDNAKKTLYLQMDSLKSEDTAQYYCLKGGCRETFSLCARGQGTQVTVSS
